Source: the nanobody polyreactivity screen of Harvey et al. (2022)

Experiment: yeast display, Sf9 membrane polyspecificity reagent, FACS + sequencing; frameworks hold sequencing errors
Outline: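 A nanobody's polyreactivity label depends on the gate it was sorted from. Yeast display cells were stained with 10% biotinylated, detergent-solubilized Sf9 membrane reagent for 1 hour at 4 °C, enriched on streptavidin microbeads and sorted by FACS. The low and high (top ~1%) gates were set on anti-HA fluorescence for expression and streptavidin fluorescence for reagent binding.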

Row | Sequence | polyreactivity (PSR sort gate)
1 | QVQLVESGGGLVQAGGSLRLSCAASGSTLNYYAMGWYRQAPGKERELVAAITWSGGSTSYADSVKGRFTISRDNAKNTVYVQMNSLKPEDTAVYYGATDFPTVQLYDTDWLSSDMGYWGQGTQVTVSS | low polyreactivity
2 | QVQLVESGGGLVQAGGSLRLSCAASGSTFSKNAMGWYRQAPGKERELVASISSSGGSTYYADSVKGRFTISRDNAKNTVYLQMNSLKPEDTAVYYCNRRWYARGEYWGQGTQVTVSS | high polyreactivity
3 | QVQLVESGGGLVQAGGSLRLSCAASGSIFARYAMGWYRQAPGKERELVAAISSSGSRTYYADSVKGRFTISRDNAKNTVYLQMNSLKPEDTAVYYCATRYGSASGREYEYWGQGTQVTVSS | high polyreactivity
4 | QVQLVESGGGLVQAGGSLRLSCAASGRIFQAYAMGWYRQAPGKERELVAAISRSGGGTYYADSVKGRFTISRDNAKNTVYLQMNSLKPEDTAVYYCNARGSTARGRGYWGQGTQVTVSS | high polyreactivity
5 | QVQLVESGGRLVKARGSLRISFADSVRTFIRNAMGWYRQAPGKERELVAAITSSGGSTYYADSVKGRFTISRDNAKITVYLQMNILKPEDTAVYYCAAVNSKRHRRYNYWGQGTQVTVSS | high polyreactivity
6 | QVQLVESGGGLVQAGGSLRLSSDASGRILAGYAMGWYRQAPGKERELVAAITRGGTTYYADYVKGRFTISRDNAKNTVYLQINSMKPEDTAVVYTVSSAQYDFWGQGTQVTVSS | low polyreactivity
7 | LLQLQESGGVLVQAGCRLRLICAASGSISVTRAMCWYSQAPGKERELVASTTGGSNNADSVNGRFTISRDNAKTTVYLQMNSLKPEDTAVYYCATEYYGPVYDLDYDYCGQGTQVTVSS | low polyreactivity
8 | QVQLVESGGGLVQAGGSLRLSCAASGRTFPENTMGWYRQAPAKERELVAAISSTTSTNYADSVKGRFTISRDNAKNTVYLQMNSLKPEDTAVYFWADDFWEYDGPWYANDYESWGLGTQVTVSS | low polyreactivity
9 | QVQLVESGGGLVQAGGSLRLSCAASGSTFATYAMGWYRQAPGKERELVAVITRGGRTYYADSVKGRFTISRDNAKNTVYLQMNSLKPEDTAVYYCAAKAYTYYARIGFDYWGQGTQVTVSS | high polyreactivity
10 | QVQLVESGGGLVQAGGSLRLSCGASGFIFEGYSMGRYRQAPAKERELVAANTRGDSTNYADSVKGRFTISRDNAKNTVYLLMNSLKTEDTAVYYCAKTNLIGTDFTSPVQYYYWGQGTQVTVSS | low polyreactivity
11 | QVQLVESGGGLVQAGGSLRLSCAASGRTFTRYAMGWYRQAPGKERELVAAISLSSGRTYYADSVKGRFTISRDNAKNTVYLQMNSLKPEDTAVYYCAVRSYVVPGKGFGYWGQGTQVTVSS | high polyreactivity
12 | QVQLVESGGGLVQAGGSLRLSCAASGFIFRRYAMGWYRQAPGKERDLVAAIRSDRSTNYADSVKGRFTISLDNAKNTVYLQMNSLKPEDTAVYYCARPYRSHYGWGVRGFDYWGQGTQVTVSS | high polyreactivity
13 | QVQLVESGGGLVQAGGSLRVSCAASGRIFILNTMGCYRQAPGKETELVAGISYSGSTYYADSVKGRFTISRDNAKNTVYLQMNSLKPEATAVYYCAAEYDAAWYNEGYYYWGQGTQVTVSS | low polyreactivity
14 | QVQLVESGGGLVQAGGSLRLSCAASGRTFVYNAMGWYRQAPGKERELVAAISSDGASTYYADSVKGRFTISRDNAKNTVYLQMNSLKPEDTAVYYCAADFSYYSYEHYYWVQGTQVTVSS | low polyreactivity
15 | QVQLVESGGGLVQAGGSLRLSCAASGSTFWEYAMGWYRQGPGTERELVAAISSSGGSTYYADSVKGRFTISRDNAKNTVYLQMNSLKPEDTAVYYCAARYSWRRAGYYYWGQGTQVTVSS | high polyreactivity
16 | QVQLEESGGGLVQAGGSLRLSCAASGSIFYPYAMGWYRQAPGKERELVAAISGRGGNTYYADSVKGRFTISRDIAKNTVYLQMNSLKPEDSAVYDCAADRYYWSLYGYDYWGQGTQVTVSA | high polyreactivity
17 | QVQLVESGGGLVQAGGSLRLSCAASGRTFQFYAMGWYRKAPGKEREFVAAIDLRGGSTYYADSVKGRFTISRDNAKNRVYLQMNSLKPEDTAVYYCNATRSKFGYFYRYDYWGQGTQVTVSS | low polyreactivity
18 | QFQLVESGGGLVQAGGSLRLSCAASGTFYPYAMGWYRQAPGKERELVAGITGSGGYTYFADSVKGRFTISRDNAKNTVYLQMNSLKPEDTAVYYCAKRSWIEYDYWGQGTQVTVSS | low polyreactivity
19 | QVQLVESGGGLVQAGGSLRLSCAASGRTFPRYTMGWYRQAPGKERELVAASATGGSTYYADSVKGRFTISRDNAKNTVYLQMNSLKPEDTAVYYCAARPYSNRYVLGVYYWGQGTQVTVSS | high polyreactivity
20 | QVQIVDSGVGLVQAGGSLRLSCAASGSTFLKNAMGWYRQAPGKERELVAAISYSTTPTYYADSVKGRFTFSRDNAKNTVYLQMNSLKPEDNAVYYCNIASYWGSGFDFWGLGTQVTVSS | low polyreactivity
21 | QVQLVESGGGLVQAGGSLRLSCAASGRIFTDYTMGWYRHAPGKERELDAAISKGGSGTYYADSVKGRFTISRDNAKNTVYLQMNSLKPEDTAVYYCNKVISTGEYDYWGQGTQVTVSS | low polyreactivity
22 | QVQLVESGGGLVQAGGSLRLSCAASGGIFYNYAMGWYIQAPGKERELVAAITYSGVRTNYADSVKGRFTISRDNAKNTVYLQMNSLKPEDTAVYYCNAAVVYVKMDYWGQGTQVTVSS | low polyreactivity

Row | Sequence | polyreactivity (PSR sort gate)
23 | QVQLVESGGGLVQAGGSLRLSCAASGSIFWVYVMGWYRQAPGKEREFVAAISSSGGRTYYADSVKGRFTISRDNAKNTVYLQMNRLKPEDTAVYYCAARRYWWYSASAMDYWGQGTQVTVSS | high polyreactivity
24 | QVQLVESGGGLVQAGGSLRLSCAASGSTFYRNAMGWYRQAPGKERELVAAINSTDSTNYADSVKGLFTISRDNAKNTVYLQMNSLKPEDTAVYYCAAVGDNLATAEYDYWGQGTQVTLSS | low polyreactivity
25 | QVHLEESGGGLVQAGGSLRLSCAASGIIFHFNDRGWYRQATGKERELVAAITSGGSTNYADSVKGRFTISRDNAKNTVYLQMNSLKPEDTAVYYCAARRCLRLFAYRHGYWGQGTQVTVSS | low polyreactivity
26 | QVQLVESGGGLVQAGGSLRLSCAASGRIFYYYAMGWYRQAPGKERELVAAISQRGGRTYYADSVKGRFTISRDNAKNTVYLQMYSLNQEDPAVYYCNVAGVVYPWYYYWGQGTQVTVSS | high polyreactivity
27 | QVQLVEAGGGLVQAGGRLRLSCAASGIIIVPYTMGWYRQAPGKERELVAAISRSGGRTYYADSVKGRFTISRDNAKNTVYLQMNSLKPEDTAVYDCNKRSLYYGYYLYYRMDYWGQGTQVTVSS | high polyreactivity
28 | QVQLVESGGGLVQAGGSLRLSCAASGRIFVYNAMGWYRQAPGKERELVAGINGSGGSTYYAASVKGRFRISRDHAKNSVYLQMNSLKPEDTAGYYCNAWISYGYFIFDYWGQGTQVTVSS | high polyreactivity
29 | QVQLVESGGGLVQAGGSLRLSCAASGSTFPGNAMGWYRQAPGKERELVAAITSSGGSTDYADSVKGRFTISRDNAKNTVYLQMNSLKPEDTAVYYCNAKDAEHYERFNYWGQGTQVTVSS | low polyreactivity
30 | QVQLVESGGGLVQAGGSLRLSCAASGRIFADNGMGWYRQAPGKERELVASITSSGGDTYYADSVKGRFTISRDNAKNTVYLQMNSLKPEDTAVYYCATECSWLFYGVWVVTFGDDYWGQGTQVTVSS | low polyreactivity
31 | QVQLVESGGGLVQAGGSLRLSCAASGRTIQTYAMGWYRQAPRKERELVAAITSSGGSTYYADSVKGRFTISRDNAKNTVYLQMNSLIPEDSAVYYWSAYRRIRVGVPVRTYYYWGQGTQVTVSS | high polyreactivity
32 | QVQLVESGGGLVQAGGSLRLSCAASAFIFGHYAMGWYRQAPGKERELVAGINSSGGSTHYADSVKGRFTISRDNAKKTVYLQMNSLKPEDTAVYYCAVAARTRARVLYGYDYWGQGTQVTVSS | low polyreactivity
33 | QVQIVESGGGLVQAGGSLRLSCAASGRIFDSYAMGWYRQAPGKERELVAAISQNSGSTYYADSVKGRFTISRDNEKNTVYLQMNSLKPEDTAVYYCAATRKTKRFGYWGQGTQVTVSS | high polyreactivity
34 | QVQLVESGGGLVQAGGSLRLSFAASGRTFSRYAMVWYRQAPGKERELVATISFGGSTYYADSVKGRFTISRDNAKNTVYLQMNSLKPEDTALYYCTARYYLNYRGRKYESWGQGTQVTVSS | high polyreactivity
35 | QVQLVESGGGLVQAGGSLRLSCAASGRTIGYNAMGWYRQAPGKERELVAAITRSAGITYYADSVKGRFTISRDNAKNTVYLQLNSLKPEDTAVYYCNKRVVYRSSLFDYWGQGTQVTVSS | low polyreactivity
36 | QVQLVESGGGLVQAGGSLRLSCAASGRTFSYYAMGWYRQAPGKERELVATIRFSGGGTYYADSVKGRFTISRDNAKNTVYLQMNSLKPEDTAVYYCNADSIDPFLYDYWGQGTQVTVSS | low polyreactivity
37 | QVQLVESGGGLVQAGGSLRISCAASGGIIQYYDMGWYRQAPGKEREFVATISQRGGITYYADSVKGRFTISRDNAKNTVYLQMNSLKPEDTAVYYCAARSYYAVYYWGQGTQVTVSS | high polyreactivity
38 | QVQLVESGGGLVQAGGRLRLSCAAAGSTFDGNAMGWYRQAPGKERELVADIDSIGGSTYYADSVKGRFTISRDNAKNTVYLQMNSLKPEDTAVYYCADRRFDTALVLYDYWGQGTQVTVSS | low polyreactivity
39 | QVQLVESGGGLVQAGGSLRLSCAASGSIFSRNAMGWYRQAPGKERELVAAISRRGGSTYYADSVKGRFTISRDNAKITVYLQMNSLKPEDTAVYYCAAPFEAVRSYYWGQGTQVTVSS | high polyreactivity
40 | QVQLVESGGGLVQAGGSLRLSCAASGSIFTFYAMGWYRQAPGKERELVATITISTGSTYYADSVKGRFTISRDNAKNTVYLQMNCLKPEDTAVYYCAARRRSAEYNYWGQGTQVTVSS | high polyreactivity
41 | QVQLVESGGGLVQAGGSLRLSCAASGRTFNGYAMGWYRQAPGKERELVASITLRGGSTYYADSVKGRFTISRDNAKNTVYLQMNSLKPEDTAVYYCAVGKFVRYPGRWRYRYDYWGQGTQVTVSS | high polyreactivity
42 | QVQLVESGGGLVQAGGSLRLSCAASGFIFGINAMGWYRQAPGKERELVAAISKRTGSTYYADSVKGRFTISRDTAKNTVYLQMNSLKPEDTAVYYCNVVRYNGLDKYDYWGQGTQVTVSS | high polyreactivity
43 | QVQLVESGGGLVQAGGSLRLSCAASGSTFRVNAMGWYRQAPGKERELVAAISSSGGITYYADSVKGRFTISRDNAKNTVYLQMNSLKPEDTAVYYCAKGTVIHVLYDYWGQGTQVTVSS | low polyreactivity
